Key:
PC-3 = experiment: MTT Cell Proliferation Assay, PC-3; type: cell-based, human; conditions: 120 hours of exposure
From the text: (§1) This Example describes characterization of the cytotoxic activity of herein described anti-BKB2R monoclonal antibodies against a panel of cancer cell lines. BxPC-3 is a human adenocarcinoma cell line originally isolated from the pancreas (pancreatic cancer) (ATCC # CRL-1687; Tan et al., Cancer Invest. 4: 15-23, 1986. PubMed: 3754176). MV-4-11 is a human biphenotypic B myelomonocytic leukemia (mixed-lineage leukemia, MLL-AF4) cell line originally isolated from the peripheral blood (ATCC # CRL-959; Lange et al., Blood 70: 192-199, 1987. PubMed: 3496132). Hep G2 is a human hepatocellular carcinoma cell line isolated from the liver (liver cancer) (ATCC # HB-8065; Aden et al., Nature 282: 615-616, 1979. PubMed: 233137). RS4;11 is a human acute lymphoblastic leukemia (mixed-lineage leukemia, MLL-AF4) cell line isolated from the bone marrow (ATTC # CRL-1873) Stong et al., Blood 65: 21-31, 1985. PubMed: 3917311). HT-29 is a human colorectal adenocarcinoma (ATTC # HTB-38) cell line isolated from the colon (colon cancer). Fogh et al., J. Natl. Cancer Inst. 58: 209-214, 1977. PubMed: 833871). NUGC-4 is a human stomach carcinoma isolated from the stomach paragastiric lymph node (JCRB # JCRB0834; Akiyama et al., Jpn. J. Surg., 18: 438-446, 1988). […]
(§2) The anti-proliferative activity of test compounds against the indicated cell lines was evaluated in vitro using the ATCC's MTT Cell Proliferation Assay (Catalog No. 30-1010K). After the 120 hour incubation with drug (e.g., anti-BKB2R mAb or cisplatin), cell proliferation was measured by addition of MTT reagent to each well and incubation for an additional 4 hrs. […] Optical absorbance (570 nm) of the test wells was measured and then quantitated relative to control wells that received no drug. Results were expressed as percent inhibition versus compound concentration and graphed, as shown in FIGS. 19-25, for cell lines BxPC-3, MV-4;11, HepG2, RS-4;11, HT-29, NUGC-4, and PC-3, respectively.

HT-29 = experiment: MTT Cell Proliferation Assay, HT-29; type: cell-based, human; conditions: 120 hours of exposure
From the text: as §1, §2

[1] = target: T1, human BKB2R-derived epitope peptide, SE ID NO:73 (Homo sapiens, UniProt P30411); experiment: ForteBio Octet binding kinetics to the BKB2R epitope peptide
T1 construct: purchased Biosyn, Lewisville, Tex
Procedure, shortened: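 Antibodies were titrated kinetically on a ForteBio Octet label-free biolayer interferometry platform against the human BKB2R epitope peptide (SEQ ID NO:73), compared with the parent mouse monoclonal. Streptavidin biosensors coated with biotinylated peptide at 50 μg/ml were equilibrated in kinetic buffer, then underwent 500 s association in antibody dilutions and 500 s dissociation in buffer.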

NUGC-4 = experiment: MTT Cell Proliferation Assay, NUGC-4; type: cell-based, human; conditions: 120 hours of exposure
From the text: as §1, §2

B1: 5F12G1: murine monoclonal anti-BKB2R antibody (IgG2b,κ), VH comprising SEQ ID NO:1, VL comprising SEQ ID NO:2 (antibody, listed as Mus musculus, V domains shown)
VH: EVKLEESGGGLVQPGGSMKLSCVVSGFTFSDYWMSWVRHSPEMGLEWVAEIRLKSDNYATHYAESVKGRFTISRDDSKSRLYLQINSLRGEDTGIYYCTRDYYAMEYWGQGTSVTVSS
VL: DVVMTQTPLSLPVSLGDQASISCRSSQTIVHSNGKTYLEWYLQKPGQSPKLLIYKVSNRFSGVPDRFSGSGSGTEFTLKISRVETEDLGVYYCFQASHVPYTFGGGTKLEIK
EC 50 Values (ng/ml) PC-3 (PC-3): 4200 ng/mL
EC 50 Values (ng/ml) HT-29 (HT-29): 16000 ng/mL
Max Response ([1]; Conc. 833 nM): 0.0265
kdis ([1]; Conc. 833 nM): 0.00109 s⁻¹
kon ([1]; Conc. 833 nM): 2350 M⁻¹ s⁻¹
Max Response ([1]; Conc. 1000 nM): 0.0385
kdis ([1]; Conc. 1000 nM): 0.00109 s⁻¹
kon ([1]; Conc. 1000 nM): 2350 M⁻¹ s⁻¹
Max Response ([1]; Conc. 1667 nM): 0.0544
kdis ([1]; Conc. 1667 nM): 0.00109 s⁻¹
kon ([1]; Conc. 1667 nM): 2350 M⁻¹ s⁻¹
Max Response ([1]; Conc. 3333 nM): 0.0757
kdis ([1]; Conc. 3333 nM): 0.00109 s⁻¹
kon ([1]; Conc. 3333 nM): 2350 M⁻¹ s⁻¹
EC 50 Values (ng/ml) NUGC-4 (NUGC-4): 47000 ng/mL

— US20140017242A1, “ANTI-BRADYKININ B2 RECEPTOR (BKB2R) MONOCLONAL ANTIBODY” (Diamedica, Inc., priority 2010, published 2014)
